According to US20080201790:

How the values were obtained:
[1] = target: recombinant catalytically inactive MEK-1 (Lys343 to Met, polyhistidine fusion), P31938
[2] = target: recombinant MEK1 (substrate in Example 2)
[3] = target: recombinant JNKK (substrate in Example 2)

| Protein | phosphorylation of catalytically inactive MEK-1 by immunoprecipitated MEKK (γ-32P-ATP, SDS-PAGE, autoradiography) [1] | in vitro kinase assay of 12CA5 immunoprecipitates with a recombinant substrate and γ-32P-ATP [2] | in vitro kinase assay of 12CA5 immunoprecipitates with a recombinant substrate and γ-32P-ATP [3] |
| --- | --- | --- | --- |
| MEKK1 (protein encoded by p-MEKK1, transiently expressed in COS cells) (protein) MVTAVPAVFSKLVTMLNASGSTHFTRMRRRLMAIADEVEIAEVIQLGVEDTVDGHQDSLQAVAPTSCLENSSLEHTVHREKTGKGLSATRLSASSEDISDRLAGVSVGLPSSTTTEQPKPAVQTKGRPHSQCLNSSPLSHAQLMFPAPSAPCSSAPSVPDISKHRPQAFVPCKIPSASPQTQRKFSLQFQRNCSEHRDSDQLSPVFTQSRPPPSSNIHRPKPSRPVPGSTSKLGDATKSSMTLDLGSASRCDDSFGGGGNSGNAVIPSDETVFTPVEDKCRLDVNTELNSSIEDLLEASMPSSDTTVTFKSEVAVLSPEKAENDDTYKDDVNHNQKCKEKMEAEEEEALAIAMAMSASQDALPIVPQLQVENGEDIIIIQQDTPETLPGHTKAKQPYREDAEWLKGQQIGLGAFSSCYQAQDVGTGTLMAVKQVTYVRNTSSEQEEVVEALREEIRMMGHLNHPNIIRMLGATCEKSNYNLFIEWMAGGSVAHLLSKYGAFKESVVINYTEQLLRGLSYLHENQIIHRDVKGANLLIDSTGQRLRIADFGAAARLASKGTGAGEFQGQLLGTIAFMAPEVLRGQQYGRSCDVWSVGCAIIEMACAKPPWNAEKHSNHLALIFKIASATTAPSIPSHLSPGLRDVAVRCLELQPQDRPPSRELLKHPVFRTTW | MEKK phosphorylated catalytically inactive MEK-1 |  |  |
| HA epitope-tagged MEKK3 (expressed in HEK293 cells) (protein) MGYPYDVPDYASDEQEALDSIMKDLVALQMSRRTRLSGYETMKNKDTGHPNRQSDVRIKFEHNGERRIIAFSRPVRYEDVEHKVTTVFGQPLDLHYMNNELSILLKNQDDLDKAIDILDRSSSMKSLRILLLSQDRNHTSSSPHSGVSRQVRIKPSQSAGDINTIYQAPEPRSRHLSVSSQNPGRSSPPPGYVPERQQHIARQGSYTSINSEGEFIPETSEQCMLDPLSSAENSLSGSCQSLDRSADSPSFRKSQMSRARSFPDNRKECSDRETQLYDKGVKGGTYPRRYHVSVHHKDYNDGRRTFPRIRRHQGNLFTLVPSSRSLSTNGENMGVAVQYLDPRGRLRSADSENALTVQERNVPTKSPSAPINWRRGKLLGQGAFGRVYLCYDVDTGRELASKQVQFDPDSPETSKEVSALECEIQLLKNLQHERIVQYYGCLRDRAEKILTIFMEYMPGGSVKDQLKAYGALTESVTRKYTRQILEGMSYLHSNMIVHRDIKGANILRDSAGNVKLGDFGASKRLQTICMSGTGIRSVTGTPYWMSPEVISGEGYGRKADVWSLGCTVVEMLTEKPPWAEYEAMAAIFKIATQPTNPQLPSHISEHGRDFLRRIFVEARQRPSAEELLTHHFAQLVY |  | it did not show measurable kinase activity toward MEK 1 or JNKK | it did not show measurable kinase activity toward MEK 1 or JNKK |
| HA epitope-tagged MEKK2 (expressed in HEK293 cells) (protein) MGYPYDVPDYASDDQQALNSIMQDLAVLHKPVGQHYLYKKPGKQNLHHQKNRMMFESNLNIEEEKRILQVTRPVKLEDLRSKSKIAFGQSMDLHYTNNELVIPLTTQDDLDKAVELLDRSIHMKSLKILLVVNGSTQATNLEPSPSPEDLNNTPLGAERKKRLSVVGPPNRDRSSPPPGYIPDILHQIARNGSFTSINSEGEFIPESMDQMLDPLSLSSPENSGSGSCPSLDSPLDGESYPKSRMPRAQSYPDNHQEFTDYDNPIFEKFGKGGTYPRRYHVSYHHQEYNDGRKTFPRARRTQGTSFRSPVSFSPTDHSLSTSSGSSVFTPEYDDSRIRRRGSDIDNPTLTVTDISPPSRSPRAPTNWRLGKLLGQGAFGRVYLCYDVDTGRELAVKQVQFNPESPETSKEVNALECEIQLLKNLLHERIVQYYGCLRDPQEKTLSIFMELSPGGSIKDQLKAYGALTENVTRKYTRQILEGVHYLHSNMIVHRDIKGANILRDSTGNIKLGDFGASKRLQTICLSGTGMKSVTGTPYWMSPEVISGEGYGRKADIWSVACTVVEMLTEKPPWAEFEAMAAIFKIATQPTNPKLPPHVSDYTRDFLKRIFVEAKLRPSAEELLRHMFVHYH |  | MEKK 2 clearly phosphorylates both MEK 1 and JNKK | MEKK 2 clearly phosphorylates both MEK 1 and JNKK |
